Experimental data published in patent US11512141B2, “Fibrinogen-like protein 2 (FGL2) monoclonal antibodies and their use in cancer detection and treatment” (Board of Regents, The University of Texas System, priority 2017, dated 2022).

Experiments:
[1] = system: glioma GL261 tumors; experiment: Mouse glioma GL261 tumor model, alone or with temozolomide; type: in vivo; settings: 20 mg/kg TMZ + 200 μg antibody
Procedure: FIGS. 3A-3C: (FIG. 3A) Percent survival of glioma GL261 tumors treated with temozolomide (TMZ) in combination with IgG, F59, anti-PDL1, or F48. […] Western blot analysis of FLG2 expression with various antibodies. FGLS expression is reduced in tumors treated with anti-FGL2 antibodies. (FIG. 3C) Percent survival of mice inoculated with GL261 and treated with IgG control or F59.
Next, the effect of the combination of temozolomide (TMZ) and anti-PDL1+anti-FGL2 antibody was determined on the mouse glioma GL261 tumor model progression in vivo.
Percent survival of glioma GL261 tumors treated with temozolomide (TMZ) in combination with IgG, F59, anti-PDL1, or F48 (FIG. 3).

[2] = system: CD39 and CD73 regulatory T cell expression; experiment: Blocking of CD39 and CD73 regulatory T cell expression; type: cell-based
Procedure: The present studies developed and characterized two anti-FGL2 monoclonal antibodies, F48 and F59. […] The effects of the anti-FGL2 antibodies were evaluated alone and in combination with other anti-cancer therapies such as anti-PDL1 antibody and chemotherapy on several mouse tumor models, including glioblastoma, melanoma, and lung cancer.

[3] = system: OT-I T cells; experiment: Activation-induced OT-I T cell proliferation; type: cell-based; settings: OT-I T cells activated with αCD3/CD28, with or without OVA peptide
Source text: OT-I T cells were activated with αCD3/CD28 and then divided into different dishes to check the proliferation in the absence or presence of +OVA peptide (pep), absence or presence FGL2 mAb F48, and co-absence or presence of F48. Cell numbers were counted on different days.

[4] = system: GL261 glioblastoma cells; experiment: GL261 glioblastoma subcutaneous mouse model, M2 cell population in tumors; type: in vivo, mice; settings: 100 μg antibody i.v. every 3 days, from 5-7 days after s.c. GL261 inoculation; vs IgG control
Source text: FIGS. 1A-1C: (FIG. 1A) FGL2 expression in normal brain and GBM tissue shown by immunohistochemistry. Increased staining is observed in the glioma tissues. (FIG. 1B) Flow cytometry analysis for the expression of F4/80 and CD206 in glioblastoma tumor cells treated with IgG control or F48 anti-FGL2 antibody. (FIG. 1C) Percentage of M2 macrophages in the glioblastoma tumors treated with IgG control or F48 anti-FGL2 antibody.
To screen for the anti-FGL2 antibody F48 function in mice, GL261 glioblastoma cells (1×10^5 in 30 μL) were injected into the back of mice by subcutaneous injection. The first treatment with antibody comprised 100 μg antibody by intravenous injection starting at about 5-7 days after tumor inoculation. The antibody treatment was repeated every 3 days and the mice were sacrificed at about 14-21 days.

[5] = system: FGL2; experiment: Cross-species binding of anti-FGL2 antibodies
Source text: In particular embodiments, the anti-FGL2 monoclonal antibodies provided herein are the F48 and F59 antibodies. […] Given that the combination of CD39 and CD73 degrade ATP, ADP, and AMP to adenosine, they can be viewed as “immunological switches” that shift ATP-driven pro-inflammatory immune cell activity toward an anti-inflammatory state mediated by adenosine. CD39 and CD73 both play a role in regulating the function of several immune cell types, including lymphocytes, neutrophils, monocytes/macrophages, dendritic cells, and endothelial cells (Antonioli et al., 2013).

B1: F48: anti-FGL2 monoclonal antibody of hybridoma clone F48; heavy chain SEQ ID NO:2, light chain SEQ ID NO:4 (antibody, V domains shown)
VH: MGWSCIILFLVATATGVHSQVQLQQPGAELVKPGASVKLSCKASGYTFASYWMQWVKQRPGQGLEWIGEIDPSDSYTNYNQKFKGKATLTVDTSSNTAYMQLSSLTSEDSAVYYCARNGNYYGSTYDYWGQGTTLTVSS
VL: MMSSAQFLGLLLLCFQGTRCDIQMTQTTSSLSASLGDRVTISCRASQDVSNYLNWYQQKPDGSVKLLIYYTSRLHSGVPSRFSGSGSGAHYSLTISNLEQEDIATYFCQQGNTLPPWTFGGGTKLEIK
percent survival [1]: significantly improve glioma survival | block CD39 and CD73 regulatory T cell expression [2]: able to block CD39 and CD73 regulatory T cell expression | activation-induced T cell growth (cell numbers) [3]: promote activation-induced T cell growth | percentage of M2 cell population in the tumors [4]: suppression of the percentage of M2 cell population in the tumors | cross-species binding [5]: share the property of cross-species binding
